B1: hzB7v21-xELL-P329G-KiH Fc-IL-2 mutant (Fc fusion)
chain 1: QVQLVQSGGGEVQPGGSLRLSCAASGFTFDDYAMSWVRQAPGKGLEWVSTITWDAEGTDYAESVKGRFTISRDNAKNTVYLQMSSLRAEDTAVYYCAKGSPELQYDTWGQGTLVTVKPDKTHTCPPCPAPGGPSVFLFPPKPKDTLMISRTPEVTCVVVDVSHEDPEVKFNWYVDGVEVHNAKTKPREEQYNSTYRVVSVLTVLHQDWLNGKEYKCKVSNKALGAPIEKTISKAKGQPREPQVCTLPPSRDELTKNQVSLSCAVKGFYPSDIAVEWESNGQPENNYKTTPPVLDSDGSFFLVSKLTVDKSRWQQGNVFSCSVMHEALHNRYTQKSLSLSPG
chain 2: QVQLVQSGGGEVQPGGSLRLSCAASGFTFDDYAMSWVRQAPGKGLEWVSTITWDAEGTDYAESVKGRFTISRDNAKNTVYLQMSSLRAEDTAVYYCAKGSPELQYDTWGQGTLVTVKPDKTHTCPPCPAPGGPSVFLFPPKPKDTLMISRTPEVTCVVVDVSHEDPEVKFNWYVDGVEVHNAKTKPREEQYNSTYRVVSVLTVLHQDWLNGKEYKCKVSNKALGAPIEKTISKAKGQPREPQVYTLPPCRDELTKNQVSLWCLVKGFYPSDIAVEWESNGQPENNYKTTPPVLDSDGSFFLYSKLTVDKSRWQQGNVFSCSVMHEALHNHYTQKSLSLSPG
notes: Knob-in-hole heterodimer: VHH on the N-terminus of each Fc, mutant IL-2 only on the knob Fc; not shown: mutant, attenuated IL-2 fused to the C-terminus of the knob Fc
B2: hzB7v19-xELL-P329G-KiH Fc-IL-2 mutant (Fc fusion)
chain 1: QVQLVESGGGEVQPGGSLRLSCAASGFTFDDYAMSWVRQAPGKGLEWVSTITWDAEGTDYAESVKGRFTISRDNAKNTVYLQMSSLRAEDTAVYYCAKGSPELQYDTWGQGTLVTVKPDKTHTCPPCPAPGGPSVFLFPPKPKDTLMISRTPEVTCVVVDVSHEDPEVKFNWYVDGVEVHNAKTKPREEQYNSTYRVVSVLTVLHQDWLNGKEYKCKVSNKALGAPIEKTISKAKGQPREPQVCTLPPSRDELTKNQVSLSCAVKGFYPSDIAVEWESNGQPENNYKTTPPVLDSDGSFFLVSKLTVDKSRWQQGNVFSCSVMHEALHNRYTQKSLSLSPG
chain 2: QVQLVESGGGEVQPGGSLRLSCAASGFTFDDYAMSWVRQAPGKGLEWVSTITWDAEGTDYAESVKGRFTISRDNAKNTVYLQMSSLRAEDTAVYYCAKGSPELQYDTWGQGTLVTVKPDKTHTCPPCPAPGGPSVFLFPPKPKDTLMISRTPEVTCVVVDVSHEDPEVKFNWYVDGVEVHNAKTKPREEQYNSTYRVVSVLTVLHQDWLNGKEYKCKVSNKALGAPIEKTISKAKGQPREPQVYTLPPCRDELTKNQVSLWCLVKGFYPSDIAVEWESNGQPENNYKTTPPVLDSDGSFFLYSKLTVDKSRWQQGNVFSCSVMHEALHNHYTQKSLSLSPG
notes: as for B1
B3: hzB7v20-xELL-P329G-KiH Fc-IL-2 mutant (Fc fusion)
chain 1: EVQLVQSGGGEVQPGGSLRLSCAASGFTFDDYAMSWVRQAPGKGLEWVSTITWDAEGTDYAESVKGRFTISRDNAKNTVYLQMSSLRAEDTAVYYCAKGSPELQYDTWGQGTLVTVKPDKTHTCPPCPAPGGPSVFLFPPKPKDTLMISRTPEVTCVVVDVSHEDPEVKFNWYVDGVEVHNAKTKPREEQYNSTYRVVSVLTVLHQDWLNGKEYKCKVSNKALGAPIEKTISKAKGQPREPQVCTLPPSRDELTKNQVSLSCAVKGFYPSDIAVEWESNGQPENNYKTTPPVLDSDGSFFLVSKLTVDKSRWQQGNVFSCSVMHEALHNRYTQKSLSLSPG
chain 2: EVQLVQSGGGEVQPGGSLRLSCAASGFTFDDYAMSWVRQAPGKGLEWVSTITWDAEGTDYAESVKGRFTISRDNAKNTVYLQMSSLRAEDTAVYYCAKGSPELQYDTWGQGTLVTVKPDKTHTCPPCPAPGGPSVFLFPPKPKDTLMISRTPEVTCVVVDVSHEDPEVKFNWYVDGVEVHNAKTKPREEQYNSTYRVVSVLTVLHQDWLNGKEYKCKVSNKALGAPIEKTISKAKGQPREPQVYTLPPCRDELTKNQVSLWCLVKGFYPSDIAVEWESNGQPENNYKTTPPVLDSDGSFFLYSKLTVDKSRWQQGNVFSCSVMHEALHNHYTQKSLSLSPG
notes: as for B1

Target: T1, Human CD8a (human, UniProt P01732 22-235)
T1 construct: also called CD8α; human CD8a-FL
Assay: flow cytometry, HEK293F cells transfected with human CD8a (citrine+ gate)
Description: Binding of polypeptides comprising a humanized CD8a-binding VHH domain, an Fc region, and, in certain polypeptides, a mutated, attenuated IL-2 fused to the C-terminus of the Fc region, was assessed by flow cytometry on HEK293F cells transiently transfected with a plasmid encoding human CD8α or CD8b chains. […] Complexes or polypeptides that are not labeled “KiH” form homodimers under physiologic conditions. The transfected cells were plated in a 96-well plate at 50,000 cells per well in FACS buffer (PBS, 1% BSA, 0.1% NaN₃, pH 7.4). Test polypeptides were then diluted to 2× the final concentration of 500 nM, and a 6-fold serial dilution was made. FACS buffer with no polypeptide was used as a secondary antibody-only control. Test polypeptides were added to an equal volume of cells, and assay plates were incubated for 30 minutes at 4° C. After washing twice with 150 μL of FACS buffer per well, the cells were resuspended in FACS buffer with a fluorescently-labeled anti-human Fc antibody diluted 1:1000 to detect CD8 binding. Assay plates were incubated at 4° C. for 30 minutes. After one additional wash with 150 μL of FACS buffer, polypeptide bound to CD8 was detected by flow cytometry on cells positive for the transfection marker citrine. Binding was measured on these cell populations as mean fluorescence intensity (MFI) at 647 nm. Flow cytometric detection was performed on an IntelliCyt iQue Screener Plus. The data were plotted and analyzed using GraphPad Prism analysis software.

T1 sequence (P01732 22-235): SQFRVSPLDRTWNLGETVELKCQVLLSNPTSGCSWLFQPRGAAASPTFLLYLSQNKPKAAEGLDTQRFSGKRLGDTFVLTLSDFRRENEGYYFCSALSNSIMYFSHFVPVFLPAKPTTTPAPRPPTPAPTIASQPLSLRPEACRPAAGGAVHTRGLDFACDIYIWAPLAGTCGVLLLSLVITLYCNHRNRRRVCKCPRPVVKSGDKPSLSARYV

B1 and B2 are within 1.5-fold of each other in Kd: 5.23 nM for the first, 7.5 nM for the second.

Binder B3 has a Kd of 4.48 nM.
